Biological target: Regulatory ATPase variant A (RavA) (E. coli) (UniProt P31473)

B1: von Willebrand factor type A interacting with AAA+ ATPase (ViaA) (natural protein)
chain: MLTLDTLNVMLAVSEEGLIEEMIIALLASPQLAVFFEKFPRLKAAITDDVPRWREALRSRLKDARVPPELTEEVMCYQQSQLLSTPQFIVQLPQILDLLHRLNSPWAEQARQLVDANSTITSALHTLFLQRWRLSLIVQATTLNQQLLEEEREQLLSEVQERMTLSGQLEPILADNNTAAGRLWDMSAGQLKRGDYQLIVKYGEFLNEQPELKRLAEQLGRSREAKSIPRNDAQMETFRTMVREPATVPEQVDGLQQSDDILRLLPPELATLGITELEYEFYRRLVEKQLLTYRLHGESWREKVIERPVVHKDYDEQPRGPFIVCVDTSGSMGGFNEQCAKAFCLALMRIALAENRRCYIMLFSTEIVRYELSGPQGIEQAIRFLSQQFRGGTDLASCFRAIMERLQSREWFDADAVVISDFIAQRLPDDVTSKVKELQRVHQHRFHAVAMSAHGKPGIMRIFDHIWRFDTGMRSRLLRRWRR
  ATPase activity of 0.5 uM RavA with equimolar full-length ViaA (ATP-NADH coupled assay): 3 fold

Reference: PMC10585395
